# In article PMC7367873, “Dissecting the sequence determinants for dephosphorylation by the catalytic subunits of phosphatases PP1 and PP2A” (Nature Communications, 2020):
# B1: SFPQ (protein, UniProt P23246 1-707, looked up)
# Splicing factor, proline- and …: MSRDRFRSRGGGGGGFHRRGGGGGRGGLHDFRSPPPGMGLNQNRGPMGPGPGQSGPKPPIPPPPPHQQQQQPPPQQPPPQQPPPHQPPPHPQPHQQQQPPPPPQDSSKPVVAQGPGPAPGVGSAPPASSSAPPATPPTSGAPPGSGPGPTPTPPPAVTSAPPGAPPPTPPSSGVPTTPPQAGGPPPPPAAVPGPGPGPKQGPGPGGPKGGKMPGGPKPGGGPGLSTPGGHPKPPHRGGGEPRGGRQHHPPYHQQHHQGPPPGGPGGRSEEKISDSEGFKANLSLLRRPGEKTYTQRCRLFVGNLPADITEDEFKRLFAKYGEPGEVFINKGKGFGFIKLESRALAEIAKAELDDTPMRGRQLRVRFATHAAALSVRNLSPYVSNELLEEAFSQFGPIERAVVIVDDRGRSTGKGIVEFASKPAARKAFERCSEGVFLLTTTPRPVIVEPLEQLDDEDGLPEKLAQKNPMYQKERETPPRFAQHGTFEYEYSQRWKSLDEMEKQQREQVEKNMKDAKDKLESEMEDAYHEHQANLLRQDLMRRQEELRRMEELHNQEMQKRKEMQLRQEEERRRREEEMMIRQREMEEQMRRQREESYSRMGYMDPRERDMRMGGGGAMNMGDPYGSGGQKFPPLGGGGGIGYEANPGVPPATMSGSMMGSDMRTERFGQGGAGPVGGQGPRGMGPGTPAGYGRGREEYEGPNKKPRF
# B2: IPO7 (protein, UniProt O95373 1-1038, looked up)
# Importin-7: MDPNTIIEALRGTMDPALREAAERQLNEAHKSLNFVSTLLQITMSEQLDLPVRQAGVIYLKNMITQYWPDRETAPGDISPYTIPEEDRHCIRENIVEAIIHSPELIRVQLTTCIHHIIKHDYPSRWTAIVDKIGFYLQSDNSACWLGILLCLYQLVKNYEYKKPEERSPLVAAMQHFLPVLKDRFIQLLSDQSDQSVLIQKQIFKIFYALVQYTLPLELINQQNLTEWIEILKTVVNRDVPNETLQVEEDDRPELPWWKCKKWALHILARLFERYGSPGNVSKEYNEFAEVFLKAFAVGVQQVLLKVLYQYKEKQYMAPRVLQQTLNYINQGVSHALTWKNLKPHIQGIIQDVIFPLMCYTDADEELWQEDPYEYIRMKFDVFEDFISPTTAAQTLLFTACSKRKEVLQKTMGFCYQILTEPNADPRKKDGALHMIGSLAEILLKKKIYKDQMEYMLQNHVFPLFSSELGYMRARACWVLHYFCEVKFKSDQNLQTALELTRRCLIDDREMPVKVEAAIALQVLISNQEKAKEYITPFIRPVMQALLHIIRETENDDLTNVIQKMICEYSEEVTPIAVEMTQHLAMTFNQVIQTGPDEEGSDDKAVTAMGILNTIDTLLSVVEDHKEITQQLEGICLQVIGTVLQQHVLEFYEEIFSLAHSLTCQQVSPQMWQLLPLVFEVFQQDGFDYFTDMMPLLHNYVTVDTDTLLSDTKYLEMIYSMCKKVLTGVAGEDAECHAAKLLEVIILQCKGRGIDQCIPLFVEAALERLTREVKTSELRTMCLQVAIAALYYNPHLLLNTLENLRFPNNVEPVTNHFITQWLNDVDCFLGLHDRKMCVLGLCALIDMEQIPQVLNQVSGQILPAFILLFNGLKRAYACHAEHENDSDDDDEAEDDDETEELGSDEDDIDEDGQEYLEILAKQAGEDGDDEDWEEDDAEETALEGYSTIIDDEDNPVDEYQIFKAIFQTIQNRNPVWYQALTHGLNEEQRKQLQDIATLADQRRAAHESKMIEKHGGYKFSAPVVPSSFNFGGPAPGMN
# B3: LAMB3 (protein, UniProt Q13751 18-1172, looked up)
# Laminin subunit beta-3: QQACSRGACYPPVGDLLVGRTRFLRASSTCGLTKPETYCTQYGEWQMKCCKCDSRQPHNYYSHRVENVASSSGPMRWWQSQNDVNPVSLQLDLDRRFQLQEVMMEFQGPMPAGMLIERSSDFGKTWRVYQYLAADCTSTFPRVRQGRPQSWQDVRCQSLPQRPNARLNGGKVQLNLMDLVSGIPATQSQKIQEVGEITNLRVNFTRLAPVPQRGYHPPSAYYAVSQLRLQGSCFCHGHADRCAPKPGASAGPSTAVQVHDVCVCQHNTAGPNCERCAPFYNNRPWRPAEGQDAHECQRCDCNGHSETCHFDPAVFAASQGAYGGVCDNCRDHTEGKNCERCQLHYFRNRRPGASIQETCISCECDPDGAVPGAPCDPVTGQCVCKEHVQGERCDLCKPGFTGLTYANPQGCHRCDCNILGSRRDMPCDEESGRCLCLPNVVGPKCDQCAPYHWKLASGQGCEPCACDPHNSLSPQCNQFTGQCPCREGFGGLMCSAAAIRQCPDRTYGDVATGCRACDCDFRGTEGPGCDKASGRCLCRPGLTGPRCDQCQRGYCNRYPVCVACHPCFQTYDADLREQALRFGRLRNATASLWSGPGLEDRGLASRILDAKSKIEQIRAVLSSPAVTEQEVAQVASAILSLRRTLQGLQLDLPLEEETLSLPRDLESLDRSFNGLLTMYQRKREQFEKISSADPSGAFRMLSTAYEQSAQAAQQVSDSSRLLDQLRDSRREAERLVRQAGGGGGTGSPKLVALRLEMSSLPDLTPTFNKLCGNSRQMACTPISCPGELCPQDNGTACGSRCRGVLPRAGGAFLMAGQVAEQLRGFNAQLQRTRQMIRAAEESASQIQSSAQRLETQVSASRSQMEEDVRRTRLLIQQVRDFLTDPDTDAATIQEVSEAVLALWLPTDSATVLQKMNEIQAIAARLPNVDLVLSQTKQDIARARRLQAEAEEARSRAHAVEGQVEDVVGNLRQGTVALQEAQDTMQGTSRSLRLIQDRVAEVQQVLRPAEKLVTSMTKQLGDFWTRMEELRHQARQQGAEAVQAQQLAEGASEQALSAQEGFERIKQKYAELKDRLGQSSMLGEQGARIQSVKTEAEELFGETMEMMDRMKDMELELLRGSQAIMLRSADLTGLEKRVEQIRDHINGRVLYYATCK
# B4: PHGDH (protein, UniProt O43175 2-533, looked up)
# D-3-phosphoglycerate …: AFANLRKVLISDSLDPCCRKILQDGGLQVVEKQNLSKEELIAELQDCEGLIVRSATKVTADVINAAEKLQVVGRAGTGVDNVDLEAATRKGILVMNTPNGNSLSAAELTCGMIMCLARQIPQATASMKDGKWERKKFMGTELNGKTLGILGLGRIGREVATRMQSFGMKTIGYDPIISPEVSASFGVQQLPLEEIWPLCDFITVHTPLLPSTTGLLNDNTFAQCKKGVRVVNCARGGIVDEGALLRALQSGQCAGAALDVFTEEPPRDRALVDHENVISCPHLGASTKEAQSRCGEEIAVQFVDMVKGKSLTGVVNAQALTSAFSPHTKPWIGLAEALGTLMRAWAGSPKGTIQVITQGTSLKNAGNCLSPAVIVGLLKEASKQADVNLVNAKLLVKEAGLNVTTSHSPAAPGEQGFGECLLAVALAGAPYQAVGLVQGTTPVLQGLNGAVFRPEVPLRRDLPLLLFRTQTSDPAMLPTMIGLLAEAGVRLLSYQTSLVSDGETWHVMGISSLLPSLEAWKQHVTEAFQFHF
# B5: RRP15 (protein, UniProt Q9Y3B9 2-282, looked up)
# RRP15-like protein: AAAAPDSRVSEEENLKKTPKKKMKMVTGAVASVLEDEATDTSDSEGSCGSEKDHFYSDDDAIEADSEGDAEPCDKENENDGESSVGTNMGWADAMAKVLNKKTPESKPTILVKNKKLEKEKEKLKQERLEKIKQRDKRLEWEMMCRVKPDVVQDKETERNLQRIATRGVVQLFNAVQKHQKNVDEKVKEAGSSMRKRAKLISTVSKKDFISVLRGMDGSTNETASSRKKPKAKQTEVKSEEGPGWTILRDDFMMGASMKDWDKESDGPDDSRPESASDSDT
# Test system: GFP-14-3-3β and its binding proteins
# Experiment: GFP-14-3-3β co-IP with LC-MS/MS label-free quantification, untreated versus PP1c-treated
# Parameters: species or system human
# Details: GFP-14-3-3β co-IP LC-MS/MS; PP1 vs untreated; student's t-test; label-free quantification, 3 replicates each
row,"Difference (log2), PP1 vs untreated",Molecule
1,-0.3668 log2,B1
2,-0.3489 log2,B2
3,-0.3598 log2,B3
4,-0.3751 log2,B4
5,-0.3533 log2,B5

# Test system: GFP-14-3-3β
# Experiment: GFP-14-3-3β co-IP with LC-MS/MS, untreated GFP-14-3-3β versus GFP control (14-3-3 interactome)
# Assay type: binding, human
# Details: GFP-14-3-3β co-IP LC-MS/MS; untreated vs GFP; student's t-test; label-free quantification, 3 replicates each
row,Molecule,"Difference (log2), untreated vs GFP"
1,B1,0.3721 log2
2,B2,0.3162 log2
3,B3,0.9719 log2
4,B4,-0.2834 log2
5,B5,0.6496 log2
